# Measurements reported in paper PMC10940318, “Targeted intracellular delivery of dimeric STINGa by two pHLIP peptides for treatment of solid tumors” (Frontiers in Pharmacology, 2024).
# Assays:
# [1] = pH-dependent insertion into POPC liposome bilayer monitored by CD; format: physicochemical; details: CD ellipticity vs pH, 7 µM agent, 1.4 mM POPC, 25°C, Henderson-Hasselbalch fit
# Description: The interactions of pHLIP-mMSA and 2pHLIP-dMSA with liposomes were investigated by recording the construct’s fluorescence and circular dichroism (CD) using a PC1 spectrofluorometer (ISS) and a MOS-450 spectrometer (Bio-Logic Science Instruments), respectively, with temperature control set to 25°C. Liposomes, constituting of large unilamellar vesicles were prepared by extrusion. 1-palmitoyl-2-oleoyl-sn-glycero-3-phosphocholine (POPC) lipids (Avanti Polar Lipids) in chloroform were desolvated on a rotary evaporator and dried under vacuum for a minimum of 2 h. The phospholipid film was rehydrated in 2 mM citrate phosphate buffer, pH 7.4, vortexed, and passed through the extruder (using a 50 nm membrane pore size) 21 times.
# Fluorescence spectra were recorded from 310 nm to 390 nm at an excitation wavelength of 295 nm and 1.0 mm sized slits. […] CD spectra were recorded from 190 to 260 nm with a step size of 1 nm. […]
# The pH-dependent insertion of pHLIP-mMSA or 2pHLIP-dMSA into the lipid bilayer of POPC liposomes was studied by monitoring changes in the molar ellipticity as a function of pH. After the addition of aliquots of citric acid, the pHs of solutions containing pHLIP-mMSA/2pHLIP-dMSA and POPC liposomes were measured using an Orion PerHecT ROSS Combination pH Micro Electrode and an Orion Dual Star pH and ISE Benchtop Meter. […]
# [2] = biological target: human serum albumin (HSA) (Homo sapiens, UniProt P02768)
# Description: HSA was initially dissolved to 500 μM in deionized water and further diluted using pH 7.6 phosphate buffer. Dansylamide (DNSA) or dansylglycine (DNSG) (both from Tokyo Chemical Industry) were used as fluorescent markers, which are known to bind to specific sites on HSA. Each well contained 100 μL of sample consisting of the fluorescent marker DNSA or DNSG (1 μM), with different concentrations of pHLIP agents (0, 5, or 10 μM) and concentrations of HSA ranging from 0 μM to 100 μM. Samples were incubated for 2 h at 37°C. […] Fluorescence measurements from each well were performed at 485 nm with excitation at 365 nm at 37°C. As a control, binding of DNSA and DNSG were probed with each agent in absence of HSA. Before the measurements a plate reader optimization test was run. Data were fitted individually and globally using the Michaelis-Menten equation. […] Data was fitted by nonlinear least squares curve fitting procedures employing the Levenberg Marquardt algorithm using Origin 8.5.
# Table S1. Competitive binding assay.
# Figure S8. HSA binding. […] The global fitting was performed with each set of data and the fitting curves are shown as black, blue and red lines.
# [3] = test system: THP-1-Blue-ISG cells polarized into M2-type macrophages; assay: Activation of IFN (IRF-SEAP reporter) in M2-polarized macrophages; format: cell-based, human; details: THP1-Blue-ISG cells polarized by PMA, IL-4/IL-13, 2 h in DMEM without FBS pH 6.9, then 48 h, QUANTI-Blue, absorbance 655 nm, read-out: EC50 of activation of IRF signaling
# Description: THP-1-Blue™-ISG cells (Invivogen) expressing an interferon (IFN) regulatory factor (IRF)-inducible secreted embryonic alkaline phosphatase (SEAP) reporter construct were used. Cells were maintained in RPMI growth medium supplemented with L-glutamine, sodium pyruvate, 10% fetal bovine serum (FBS), normocin and ciprofloxacin hydrochloride in a humidified atmosphere of 5% CO2 and 95% air at 37°C. Cells were seeded in 96-well plates at a density of 75,000 cells/well. To generate M2 polarized macrophages, cells were treated first with 185 ng/mL phorbol 12-myristate 13-acetate (PMA) for 6 h and then 20 ng/mL of interleukin 4 (IL-4) and 20 ng/mL of interleukin 13 (IL-13) (both from PeproTech) were added for another 16 h of treatment. […] After a 2-h incubation, an equal volume of RPMI supplemented with 20% heat-inactivated FBS was added, and cells were incubated for another 48 h. SEAP activity was accessed using the QUANTI-Blue™ Solution (Invivogen) to evaluate type I interferon protein levels: 150 μL of the colorimetric reagent was added to 50 μL of cell supernatant for 30 min, 37°C, followed by absorption measurement at 655 nm.
sequence,measurement,setting,value
ADQDNPWRAYLDLLFPTDTLLLDLLWCG [2pHLIP-dMSA],cooperativity (n) of insertion into POPC bilayer,[1],1.2
same,pK (mid-point) of insertion into POPC bilayer,[1],6.0
same,binding to HSA (in words),[2],strong binding
same,EC50,[3],200 nM
